Test results published in paper PMC6754605 (Proceedings of the National Academy of Sciences of the …, 2019).
Numbering of substitutions follows the chain as printed. Numbers in names are those of the source.

B1: mouse SAA3 F24S/M25S double mutant (natural protein, UniProt P04918 19-122, looked up)
chain: QRWVQSSKEAGQGSRDMWRAYSDMKKANWKNSDKYFHARGNYDAARRGPGGAWAAKVISDAREAVQKFTGHGAEDSRADQFANEWGRSGKDPNHFRPAGLPKRY
B2: mouse SAA3 W71S/V75S double mutant (natural protein, UniProt P04918 19-122, looked up)
chain: B1 chain with S6F, S7M, W53S, V57S

Biological target: the molecule itself
Test: SEC

Row | Protein | binding result
1 | B1 | binds
2 | B2 | binds
